The target in one experiment is T1, CCL5_HUMAN (human, UniProt P13501 24-91).
T1 sequence: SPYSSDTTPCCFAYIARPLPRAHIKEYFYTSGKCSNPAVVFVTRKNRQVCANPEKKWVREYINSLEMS
In words: BLI. For orientation: BLI is a label-free optical method that tracks binding on a fibre tip over time.

A further experiment concerns the target T2, CCL8_HUMAN (human, UniProt P80075 24-99).
T2 sequence (looked up): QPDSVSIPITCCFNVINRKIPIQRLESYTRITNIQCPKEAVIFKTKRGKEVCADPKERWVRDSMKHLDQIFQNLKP
In words: BLI.

The next experiment addresses CCL11_HUMAN (human, UniProt P51671 24-97). The experiment is described as follows: BLI.
A further experiment addresses CCL13_HUMAN (human, UniProt Q99616 24-98). In words: BLI.
The target in another experiment is T3, CCL14_HUMAN (human, UniProt Q16627 22-93).
T3 sequence: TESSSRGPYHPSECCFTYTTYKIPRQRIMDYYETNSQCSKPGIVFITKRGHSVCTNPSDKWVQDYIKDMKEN
In words: BLI.

A further experiment concerns the target T4, CCL15_HUMAN (human, UniProt Q16663 22-113).
T4 sequence: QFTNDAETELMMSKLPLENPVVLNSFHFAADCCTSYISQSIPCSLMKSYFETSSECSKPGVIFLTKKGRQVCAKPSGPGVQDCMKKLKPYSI
The experiment is described as follows: BLI.

For a further experiment, the target named is T5, CCL16_HUMAN (human, UniProt O15467 24-120).
T5 sequence: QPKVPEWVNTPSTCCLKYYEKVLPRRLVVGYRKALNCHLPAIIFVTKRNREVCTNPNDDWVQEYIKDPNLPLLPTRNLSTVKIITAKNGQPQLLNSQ
In words: BLI.

Another experiment deals with T6, CCL19_HUMAN (human, UniProt Q99731 22-98).
T6 sequence: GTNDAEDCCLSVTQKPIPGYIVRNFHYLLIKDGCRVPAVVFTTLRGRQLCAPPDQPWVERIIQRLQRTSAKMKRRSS
In words: BLI.

The target of another experiment is T7, CCL22_HUMAN (human, UniProt O00626 25-93).
T7 sequence: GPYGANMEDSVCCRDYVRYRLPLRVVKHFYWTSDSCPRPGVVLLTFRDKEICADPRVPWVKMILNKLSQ
In words: BLI.

In the next experiment the target is T8, CCL23_HUMAN (human, UniProt P55773 22-120).
T8 sequence: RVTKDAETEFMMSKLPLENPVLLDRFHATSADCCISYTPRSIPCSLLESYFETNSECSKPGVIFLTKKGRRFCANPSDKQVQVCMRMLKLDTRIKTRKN
In words: BLI.

The target of the next experiment is T9, CCL27_HUMAN (human, UniProt Q9Y4X3 25-112).
T9 sequence: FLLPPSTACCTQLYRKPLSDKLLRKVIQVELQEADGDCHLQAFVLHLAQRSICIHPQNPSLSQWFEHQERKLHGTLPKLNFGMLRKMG
The experiment is described as follows: BLI.

The next experiment deals with CCL2_HUMAN (human, UniProt P13500 24-99). In words: BLI.
A further experiment addresses T10, CCL4_HUMAN (human, UniProt P13236 24-92).
T10 sequence: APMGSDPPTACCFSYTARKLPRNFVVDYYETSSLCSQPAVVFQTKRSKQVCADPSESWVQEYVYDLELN
The experiment is described as follows: BLI.

Another experiment has as its target T11, CCL4L1_HUMAN (human, UniProt Q8NHW4 24-92).
T11 sequence: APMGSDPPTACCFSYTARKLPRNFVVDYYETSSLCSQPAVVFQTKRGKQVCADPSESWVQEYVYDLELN
The experiment is described as follows: BLI.

Another experiment concerns the target T12, CCL28_HUMAN (human, UniProt Q9NRJ3 23-127).
T12 sequence: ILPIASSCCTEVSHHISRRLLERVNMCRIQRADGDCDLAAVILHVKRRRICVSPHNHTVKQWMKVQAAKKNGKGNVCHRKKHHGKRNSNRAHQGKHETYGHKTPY
In words: BLI.

The target of the next experiment is T13, CXCL7_HUMAN (human, UniProt P02775 59-128).
T13 sequence: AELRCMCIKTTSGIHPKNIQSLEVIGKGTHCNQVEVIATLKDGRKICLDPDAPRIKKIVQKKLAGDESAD
The experiment is described as follows: BLI [Cont.) C].

The target of another experiment is T14, CXCL9_HUMAN (human, UniProt Q07325 23-125).
T14 sequence: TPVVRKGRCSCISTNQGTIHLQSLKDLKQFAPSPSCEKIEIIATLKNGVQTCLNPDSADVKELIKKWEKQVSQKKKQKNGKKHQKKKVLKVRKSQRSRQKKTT
The experiment is described as follows: BLI [Cont.) C].

A further experiment has as its target T15, CXCL11_HUMAN (human, UniProt O14625 22-94).
T15 sequence: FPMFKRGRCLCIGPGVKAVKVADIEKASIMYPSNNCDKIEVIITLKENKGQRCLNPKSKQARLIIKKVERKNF
The experiment is described as follows: BLI [Cont.) C].

In the next experiment the target is CXCL12_HUMAN (human, UniProt P48061 22-89). The experiment is described as follows: BLI [Cont.) C].
The target of a further experiment is T16, CXCL4_HUMAN (human, UniProt P02776 32-101).
T16 sequence: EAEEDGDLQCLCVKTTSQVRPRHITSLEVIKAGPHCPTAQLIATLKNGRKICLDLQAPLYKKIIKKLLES
The experiment is described as follows: BLI [Cont.) C].

The target of a further experiment is T17, CXCL6_HUMAN (human, UniProt P80162 38-114).
T17 sequence: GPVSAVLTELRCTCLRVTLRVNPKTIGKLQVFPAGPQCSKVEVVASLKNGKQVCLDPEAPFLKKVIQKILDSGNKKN
In words: BLI [Cont.) C].

A further experiment addresses T18, CXCL13_HUMAN (human, UniProt O43927 23-109).
T18 sequence: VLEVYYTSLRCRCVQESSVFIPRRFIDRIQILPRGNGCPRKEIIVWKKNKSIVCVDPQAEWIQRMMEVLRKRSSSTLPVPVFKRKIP
In words: BLI [Cont.) C].

Results on 1 molecule are retold here after patent US20240034757A1 (OXFORD UNIVERSITY INNOVATION, published 2024).
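Wherever Kd is given: biolayer interferometry binding readings, curves fitting with R² below 0.9 dropped, every experiment run at least three times.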

Sequence of CXCL12_HUMAN (P48061 22-89 limits assumed): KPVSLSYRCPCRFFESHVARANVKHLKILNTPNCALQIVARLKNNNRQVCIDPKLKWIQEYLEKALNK
Sequence of CCL2_HUMAN (P13500 24-99 limits assumed): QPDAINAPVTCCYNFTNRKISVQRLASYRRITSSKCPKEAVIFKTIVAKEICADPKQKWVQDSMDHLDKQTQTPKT
Sequence of CCL11_HUMAN (P51671 24-97 limits assumed): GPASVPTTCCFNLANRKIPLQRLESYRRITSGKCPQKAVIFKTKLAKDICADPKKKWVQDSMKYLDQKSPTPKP
Sequence of CCL13_HUMAN (Q99616 24-98 limits assumed): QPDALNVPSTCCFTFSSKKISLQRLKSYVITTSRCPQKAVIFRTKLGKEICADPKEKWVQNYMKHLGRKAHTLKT

B1: P1243:G4S:P1156 (designed binder)
chain: RNHTEDNSTEYYDYEEARCACPARHLNNTNGTVLKLLGCHYFCNGTLCTAPDGYPCYNLTAQQVRTLTTYPNTSCAVGVCMKGTCVKNGTMEQCFKTPGGGGSADDDNELFTVQYCGMNCTKDEGGTWTGCTGKKEGCKCYHESGKNYGLCLSTEYTDFSQYGNPSDSEIEAAKPKRSDTLSH
As usually defined, the Kd is a measure of binding affinity in units of concentration. Read a low Kd as higher affinity. As for B1, the Kd in the experiment with CCL5_HUMAN amounted to 8.95 nM; in the experiment with CCL8_HUMAN, 381 nM; with CCL11_HUMAN it was 19.7 nM; with CCL13_HUMAN, 1.33 nM; in the experiment with CCL14_HUMAN, 1.99 nM; in the experiment with CCL15_HUMAN it was 8.71 nM. The Kd is 2.92 nM in the experiment with CCL19_HUMAN, 0.632 nM with CCL23_HUMAN, 24.4 nM with CCL27_HUMAN and 19.4 nM in the experiment with CCL4_HUMAN. Besides, the binding result with CCL16_HUMAN, with CCL22_HUMAN, in the experiment with CCL2_HUMAN, with CCL4L1_HUMAN, with CCL28_HUMAN and with CXCL7_HUMAN was “no binding (tested: 300 nM)” in each case. Also, the binding result in the experiment with CXCL9_HUMAN, in the experiment with CXCL11_HUMAN, with CXCL12_HUMAN, with CXCL4_HUMAN, with CXCL6_HUMAN and in the experiment with CXCL13_HUMAN was “no binding (tested: 300 nM)” throughout.
